Experimental findings from patent US20070172423A1, “Composition and method for modulating vasculogenesis for angiogenesis” (priority 1998, published 2007) are described below.

The subject of data set [1] is bovine aorta endothelial cells (BAEC). Description: Cell migration assay, BAEC. In kind it is cell-based. As to conditions: wounded monolayer, 20 hours, serum-free medium. On the procedure: Cell migration assays were performed on growth arrested confluent HMVEC, BAEC or hSMC cells. Cell monolayers were wounded with a rubber policeman and washed with serum-free medium. Dishes were then incubated for 20 hours in serum-free medium containing VEGF165, PDGF-AA, (R&D Systems, Minneapolis USA) or PDGF-CC. Each assay included two dishes per condition and was repeated three times independently. Cells were photographed at 40× magnification, and migration percentage corresponding to the ratio between area of the cells and the total area of the wound (Biocom visiol@b 2000 version 4.52, San Diego). For HMVEC proliferation assay, cells were seeded in 96-well plates (5 wells per condition), and incubated with VEGF, PDGF-AA, or PDGF-CC (50 ng/ml) after serum starvation. After 7 days, viable cells were counted using the cell Titer-glo luminescent cell viability assay. For NIH-3T3 and hSMC proliferation assay, cells cultured in 96-well plates were serum-starved overnight, followed by treatment with growth factors at different concentrations. Two days later, cell numbers were counted and proliferation percentage calculated, using cells cultured in medium containing 10% serum as control. Aortic ring assay was performed as described 51. […] Aortic rings were analysed at day 9 of culturing. […]

The test system of a further data set is ischemic myocardium. Description: Myocardial ischemia mouse model, Example 18. On the procedure: Acute myocardial ischemia and hind limb ischemia mouse models were performed as previously described (Luttun et al., Nat Med, 2002 1:1; Heymans et al., Nat Med, 1999 5:1135-42). Subcutaneously implanted osmotic minipumps (Alzet, type 2001) were used for continuous protein delivery for 7 days. Human PDGF-CC core domain protein was produced as described (Li et al., Nat Cell Biol, 2000 2:302-309). Fluorescent or color dye microspheres (yellow, 15 μm, Molecular Probes) were administered after maximal vasodilatation (sodium nitroprusside, 50 ng/ml, Sigma) for blood flow measurement, and flow was calculated as described (Carmeliet et al., Nat Med, 1999 5:495-502). For histology, the hearts were harvested seven days after LAD ligation, and sectioned longitudinally (6 μm). Infarcted areas were morphologically inspected after immunohistochemistry staining using thrombomodulin (rabbit anti-TM, for all vessels) and smooth muscle alpha-actin (mouse anti-SMA, for mature SMC covered vessels, Dako), and vessel densities calculated. Gastrocnemius muscles after femoral artery ligation were sectioned transversally and analysed after H&E or immunostainings with the EC marker CD31 (PECAM, rat anti-CD31, Pharmingen). Vessel densities and tissue necrosis/regeneration in the gastrocnemius muscle were analyzed morphometrically using the KS300 image analysis soft ware (Zeiss). Remodeling of collateral vessels in the upper hindlimb after femoral ligation was quantified as reported (Luttun et al., Nat Med, 2002 1:1).
A previously established mouse model of myocardial ischemia was used to assess whether PDGF-CC is capable of stimulating the revascularization of ischemic myocardium. After coronary ligation, new vessels revascularize the ischemic core from its surrounding border region. For PDGF-CC to stimulate new vessel growth, its receptor, PDGFR-α, should be expressed in the heart. […] To examine whether PDGF-CC could stimulate revascularization of the ischemic myocardium, we delivered, using a minipump, continuously over one week after coronary ligation, recombinant human PDGF-CC core domain protein, which is known to bind and activate PDGFR-α (Li et al., Nat Cell Biol, 2000 2:302-309). […] After seven days, angiogenesis was quantified by counting the number of endothelial cell (EC)-lined vessels in the ischemic area after immunolabeling with thrombomodulin (TM). Vessel maturation (arteriogenesis) was evaluated by counting the arterioles, immunoreactive for smooth muscle cell α-actin (SMA).

The mark [2] stands for this setting: 4.5 μg/day, minipump, seven days.

B1: PDGF-CC: recombinant human PDGF-CC core domain homodimer, residues 230-345 of full-length PDGF-C (SEQ ID NO:40), produced in baculovirus infected insect cells (protein)
chain: GRKSRVVDLNLLTEEVRLYSCTPRNFSVSIREELKRTDTIFWPGCLLVKRCGGNCACCLHNCNECQCVPSKVTKKYHEVLQLRPKTGVRGLHKSLTDVALEHHEECDCVCRGSTGG
modifications: homodimer; PDGF-C core domain
On to B1, for which the “migration of BAEC” value in data set [1] was “enhanced”. For the same molecule, the TM-positive vessel density entry in the data set on ischemic myocardium (1.5 μg/day, minipump, seven days) is “minimally affected”. This molecule also yielded an SMA positive vessels with ischemic myocardium (1.5 μg/day, minipump, seven days, ischemic area) of 53.1±3.7 vessels/mm^2. In addition, in the data set on ischemic myocardium (1.5 μg/day, minipump, seven days, vs saline), the “increase in number of SMA-positive arterioles” value is on record as 1.36 fold. In the data set on ischemic myocardium (setting [2]), the “angiogenesis (TM-positive vessels in ischemic area)” value is given as “significantly stimulated” and the “arteriogenesis (SMA-positive arterioles in ischemic area)” value is “significantly stimulated”. Moreover, the “blood flow (perfusion of the ischemic myocardial region)” value in the data set on ischemic myocardium (4.5 μg/day, n=7-9) was 2.2 ± 0.2 mL/min/g. Moreover, in the data set on ischemic myocardium (minipump, seven days), the “hemorrhage, edema or fibrosis in treated hearts” value was “No signs of hemorrhage, edema or fibrosis” and the “tolerability (weight loss, inactivity)” value is listed as “no signs of toxicity”. For the same molecule, in the data set with ischemic myocardium (non-ischemic organs), the “vessel density in other organs” value is given as “no differences”.
